Here are results for one molecule from patent US20240294650A1 (Alector, published 2024).

The target in test [1] is T1, endogenous murine MerTK on bone marrow-derived macrophages (mouse, UniProt Q60805 19-994).
T1 construct: whole, on cells; MFI on MerTK KO BMDM subtracted; also called BMDM WT-KO
T1 sequence (looked up): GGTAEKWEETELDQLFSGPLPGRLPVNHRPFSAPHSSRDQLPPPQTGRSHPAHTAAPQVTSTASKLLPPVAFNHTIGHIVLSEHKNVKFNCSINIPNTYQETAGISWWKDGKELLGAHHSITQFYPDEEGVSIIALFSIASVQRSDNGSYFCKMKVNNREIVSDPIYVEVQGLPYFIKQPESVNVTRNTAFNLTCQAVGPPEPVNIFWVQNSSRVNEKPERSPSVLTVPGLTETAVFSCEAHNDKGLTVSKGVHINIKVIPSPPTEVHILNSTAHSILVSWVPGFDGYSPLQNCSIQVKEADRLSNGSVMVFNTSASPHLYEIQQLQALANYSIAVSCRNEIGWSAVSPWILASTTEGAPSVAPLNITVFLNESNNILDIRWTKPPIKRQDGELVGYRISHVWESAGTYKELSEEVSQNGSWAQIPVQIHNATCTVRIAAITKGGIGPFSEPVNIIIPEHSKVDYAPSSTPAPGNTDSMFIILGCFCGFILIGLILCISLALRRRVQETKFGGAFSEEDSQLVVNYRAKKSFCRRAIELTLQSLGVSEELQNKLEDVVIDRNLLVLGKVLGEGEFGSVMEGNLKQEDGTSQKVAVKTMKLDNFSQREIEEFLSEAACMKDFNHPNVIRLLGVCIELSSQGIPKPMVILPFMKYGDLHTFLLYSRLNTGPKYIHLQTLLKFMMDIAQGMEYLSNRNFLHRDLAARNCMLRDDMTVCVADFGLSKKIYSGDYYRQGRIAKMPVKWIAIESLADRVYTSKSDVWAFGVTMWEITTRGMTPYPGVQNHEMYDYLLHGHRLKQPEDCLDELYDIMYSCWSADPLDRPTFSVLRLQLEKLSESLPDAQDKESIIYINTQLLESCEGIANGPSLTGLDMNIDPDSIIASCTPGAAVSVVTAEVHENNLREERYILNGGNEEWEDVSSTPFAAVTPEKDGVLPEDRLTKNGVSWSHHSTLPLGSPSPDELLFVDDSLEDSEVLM
The test is described as follows: FACS, mouse BMDM, WT minus MerTK KO. The procedure:
To determine whether recombinant anti-human MerTK antibodies of the present disclosure bind to human MerTK endogenously expressed on SK-MEL-5 cells and CHO cells overexpressing mouse MerTK (CHO-muMerTK OE cells), as compared to A375 and parental CHO cells as negative controls, the following experiments were performed. SK-MEL-5 cells, A375 cells, CHO-muMerTK OE cells, and CHO parental cells were plated at 100,000 cells/well. Anti-MerTK antibodies were added to the cells at 10 μg/ml. After 60 minutes on ice, cells were washed and then stained with PE-conjugated goat anti-human IgG antibody (Southern Biotech Cat #2040-09, Birmingham, AL) in the presence of Fc block solution on ice for 30 minutes, and then washed twice with cold FACS buffer (2% FBS in PBS). Mouse anti-human MerTK-PE conjugated (Biolegend, Clone 590H11G1E3) or anti-mouse MerTK-PE conjugated (ThermoFisher, Clone DS5MMER) antibodies were used as positive controls. Stained cells were acquired on a BD FACS Canto II cytometer and the mean fluorescence intensity (MFI) was calculated with FlowJo.
To confirm anti-MerTK antibody binding to endogenous murine MerTK, bone marrow-derived macrophages (BMDM) were isolated from MerTK wild type (WT) and knockout (KO) mice (The Jackson Laboratory, Cat #011122) using standard protocols. Briefly, cells isolated from the bone marrow were plated in the presence of 50 ng/ml M-CSF (R&D Systems, Cat #416-ML) for seven days to allow for differentiation into macrophages. Cell staining, FACs, and MFI were performed and calculated as described above.

Test [2] deals with T2, recombinant murine MerTK extracellular domain (mouse, UniProt Q60805 19-497).
T2 construct: also called Mouse MerTK; murine MerTK ECD; not shown: polyHis or TEVS/Thrombin/murine IgG2a-Fc tag
T2 sequence: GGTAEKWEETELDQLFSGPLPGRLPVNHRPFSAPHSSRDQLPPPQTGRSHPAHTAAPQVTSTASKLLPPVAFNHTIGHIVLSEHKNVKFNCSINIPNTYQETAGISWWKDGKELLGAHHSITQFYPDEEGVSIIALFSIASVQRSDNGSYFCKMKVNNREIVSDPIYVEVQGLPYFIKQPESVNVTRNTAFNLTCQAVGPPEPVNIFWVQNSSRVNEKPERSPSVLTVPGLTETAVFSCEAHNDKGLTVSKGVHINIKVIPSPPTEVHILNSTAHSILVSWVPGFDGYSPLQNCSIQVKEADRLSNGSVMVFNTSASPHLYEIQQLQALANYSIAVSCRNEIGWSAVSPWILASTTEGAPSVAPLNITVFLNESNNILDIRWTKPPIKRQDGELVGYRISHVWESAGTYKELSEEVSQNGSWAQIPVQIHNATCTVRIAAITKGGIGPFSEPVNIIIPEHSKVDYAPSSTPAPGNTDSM
The test is described as follows: SPR Carterra LSA, Ab immobilised. The procedure: Binding kinetics of anti-MerTK IgG1 antibodies of the present disclosure to human, cyno, and murine MerTK were evaluated using a Carterra LSA instrument (Carterra, Salt Lake City, UT). […] A HC200M sensor chip (Carterra) was activated using the single channel flow cell with a 7-minute injection of a 1:1:1 mixture of 100 mM MES pH 5.5, 100 mM sulfo-NHS, 400 mM EDC (all reconstituted in MES pH 5.5; 100 μl of each mixed in vial immediately before running assay). After switching to the multi-channel array flow cell, the antibodies were injected over the activated chip in three 96-spot arrays for 10 minutes each. The remaining unconjugated active groups on the chip were then blocked by injecting 1M Ethanolamine pH 8.5 (Carterra) for 7 minutes using the single channel flow cell. The resulting sensor chip contained three spots for each antibody, at three different densities. Two independent experiments were performed as follows, resulting in an N of between one and six determinations for each antibody. Spots that yielded less than 25 RU of analyte binding were excluded from further analysis.
After priming with running buffer (HBS-TE, Carterra) with 0.5 mg/ml BSA (Sigma), the immobilized anti-MerTK antibodies were tested for their ability to bind to several forms of recombinant MerTK extracellular domain, including human, cynomolgus, and mouse orthologs as described above. Estimates of affinity were generated by injecting each analyte over the entire antibody array using the single channel flow cell. MerTK analytes were diluted with running buffer, in a series of six, three-fold serial dilutions starting from 1 μM for human and cynomolgus MerTK, and 600 nM for mouse MerTK. Analytes were injected for 5 minutes, and dissociation was followed for 10 minutes. After each analyte injection, antibodies were regenerated with either Protein A/G Elution Buffer (Thermo) with 1M NaCl (Teknova), or with 10 mM Glycine pH 2.5. Three buffer blanks were run between each series (one species per series). Data were processed and analyzed using NextGenKIT high-throughput kinetics analysis software (Carterra).

For test [3], the target named is T3, His tag-conjugated recombinant ProS (human, UniProt P07225 42-676, limits assumed).
T3 construct: bought; also called Protein S; ProS1 (R&D systems, Cat #9489-PS-100)
T3 sequence (looked up): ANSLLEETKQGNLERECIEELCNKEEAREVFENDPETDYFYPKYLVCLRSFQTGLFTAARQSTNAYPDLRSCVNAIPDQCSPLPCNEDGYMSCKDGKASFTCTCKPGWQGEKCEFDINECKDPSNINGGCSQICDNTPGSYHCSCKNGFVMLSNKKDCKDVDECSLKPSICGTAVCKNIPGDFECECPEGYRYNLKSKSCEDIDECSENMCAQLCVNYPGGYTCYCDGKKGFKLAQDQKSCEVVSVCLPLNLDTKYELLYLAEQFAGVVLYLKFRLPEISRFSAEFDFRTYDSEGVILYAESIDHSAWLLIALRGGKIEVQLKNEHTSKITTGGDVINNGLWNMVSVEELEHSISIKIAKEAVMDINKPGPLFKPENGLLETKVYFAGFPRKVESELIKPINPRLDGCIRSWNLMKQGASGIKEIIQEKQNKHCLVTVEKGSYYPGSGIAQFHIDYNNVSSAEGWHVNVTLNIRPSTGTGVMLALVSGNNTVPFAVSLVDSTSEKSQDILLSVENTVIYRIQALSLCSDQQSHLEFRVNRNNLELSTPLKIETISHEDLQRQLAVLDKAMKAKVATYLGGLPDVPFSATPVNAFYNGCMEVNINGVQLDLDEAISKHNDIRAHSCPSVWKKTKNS
The test is described as follows: ELISA, captured Ab, ProS-His 10 ug/ml, no MerTK.

B1: MTK-232 (antibody, human IgG1, V domains shown)
VH: EVQLQESGPSLVKPSQTLSLTCSVTGDSITSGYWNWIRKFPGNKLEYMGYINYSGSTNYNPSLKSRISITRDTSKNQYYLQLNSVTTEDTATYYCARWNYLYYFDYWGQGTTLTVSS
VL: DSVMTQSHKFMSTLVGDRVSITCKASQDVGTAVAWYQQKPGQSPKVLIYWASTRHTGVPDRFTGSGSGTDFTLTITNVQSEDLADYFCHQYSTYPYTFGGGTKLEIK
Turning to B1, the MFI in test [1] was 412 MFI. In addition, the binding result in test [2] is “no binding (tested: analyte up to 600 nM)”; in test [3], “binds”.
